Source: patent US20120100142A1 (VANDERBILT UNIVERSITY, published 2012)

Columns and labels:
[1] = biological target: Recombinant A/South Carolina/1/1918 virus HA (influenza A/South Carolina/1/1918 …, UniProt Q9WFX3 18-520)
[2] = biological target: T1, 1918 HA displayed on 1918 virus-like particles, reconstituted 1918 virus or transfected cells (influenza A/South Carolina/1/1918 …, UniProt Q9WFX3 18-566); assay: cell-based or functional assay
[3] = biological target: T1, 1918 HA displayed on 1918 virus-like …; assay: cell-based or functional assay; remark: listed apart in the source
[4] = biological target: T1, 1918 HA displayed on 1918 virus-like …

T1 sequence (Q9WFX3 18-566): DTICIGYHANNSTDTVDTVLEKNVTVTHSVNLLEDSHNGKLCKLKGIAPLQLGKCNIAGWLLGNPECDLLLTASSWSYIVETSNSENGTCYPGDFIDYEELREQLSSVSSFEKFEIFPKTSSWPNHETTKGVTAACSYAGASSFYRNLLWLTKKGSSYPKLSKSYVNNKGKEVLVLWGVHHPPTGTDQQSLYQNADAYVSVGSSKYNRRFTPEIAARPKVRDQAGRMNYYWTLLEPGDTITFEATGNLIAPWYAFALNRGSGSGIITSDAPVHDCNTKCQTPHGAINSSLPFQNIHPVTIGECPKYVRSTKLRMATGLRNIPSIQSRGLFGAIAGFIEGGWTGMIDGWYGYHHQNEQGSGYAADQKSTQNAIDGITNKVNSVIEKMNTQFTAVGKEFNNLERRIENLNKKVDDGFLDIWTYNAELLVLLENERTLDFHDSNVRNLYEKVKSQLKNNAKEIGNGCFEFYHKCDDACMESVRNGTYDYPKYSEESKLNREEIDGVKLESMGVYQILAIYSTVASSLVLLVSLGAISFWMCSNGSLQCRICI
Sequence of Recombinant A/South Carolina/1/1918 virus HA (Q9WFX3 18-520 limits assumed): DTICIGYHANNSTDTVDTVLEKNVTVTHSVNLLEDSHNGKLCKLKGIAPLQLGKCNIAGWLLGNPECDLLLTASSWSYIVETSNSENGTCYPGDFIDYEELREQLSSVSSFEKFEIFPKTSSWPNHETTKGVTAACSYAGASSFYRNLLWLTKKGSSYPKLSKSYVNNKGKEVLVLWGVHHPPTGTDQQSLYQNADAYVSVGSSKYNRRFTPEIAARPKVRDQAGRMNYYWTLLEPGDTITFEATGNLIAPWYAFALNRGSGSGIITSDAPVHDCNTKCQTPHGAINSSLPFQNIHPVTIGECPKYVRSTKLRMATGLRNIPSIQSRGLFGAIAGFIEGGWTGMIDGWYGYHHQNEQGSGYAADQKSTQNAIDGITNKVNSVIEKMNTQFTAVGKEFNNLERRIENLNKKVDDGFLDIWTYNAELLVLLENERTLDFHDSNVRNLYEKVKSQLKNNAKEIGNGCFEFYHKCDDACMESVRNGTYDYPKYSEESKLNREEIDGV

| Binder | Kd [1] | koff [1] | kon [1] | Specific HAI activity [2] | HAI, specific activity of indicated mAb [3] | EC50 (read off the curve) [4] |
| --- | --- | --- | --- | --- | --- | --- |
| mAb 1F1 (antibody, V domains shown) VH: EVQLVQSGGGVVQPRRSLRLSCAASGFTFSSYAMHWVRQAPGKGLEWVAVISYDGRNKYYADSVKGRFTVSRDNSKNTLYLQMNSLRAEDTSVYYCARELLMDYYDHIGYSPGPTWGQGTLVTVSS VL: QPVLTQPPSASGSPGQRVTISCSGSSSNIGSYTVNWYQQLPGTAPKLLIYSLNQRPSGVPDRFSGSKSGTSASLAISGLQSEDEAVYYCAAWDDSLSAHVVFGGGTKLTVLG | 5.4 nM | 0.00017 s⁻¹ | 31000 M⁻¹ s⁻¹ | 0.08 µg/mL | 0.04 µg/mL | – |
| mAb 2B12 (antibody, V domains shown) VH: EVQLQESGPGLVKPSQTLSLTCNVSGGSITGDYKWSWIRQPPGKGLEWIGHIHSTGTTYYNPSLRSRITISMDTSKNNLSLRLTSVTAADTAVYYCASHTLTSGHYPRDFDFWGQGTLVTVSS VL: SYVLTQPPSVSGTPGQRVIISCSGYSSNIGSNTVNWYQQFPGTAPRLLIYANNQRPPGVPDRFSGSKSGTSASLAISGLQSDDESDYYCAAWDDSLNGHWVFGGGTKLTVLG | 6.2 nM | 0.00012 s⁻¹ | 18000 M⁻¹ s⁻¹ | 0.31 µg/mL | 0.32 µg/mL | ~0.02 µg/mL |
| mAb 2D1 (antibody, V domains shown) VH: EVQLVESGPALVKPTQTLTLTCSFSGFSLSTSGMSVSWIRQPPGKALEWLALIDWDDDTYYITYSSSLKTRLTISKDTSKSQVVLTMTNMDPVDTATYYCARTLRVSGDYVRDFDLWGRGTLVTVS VL: not shown | 0.25 nM | 1e-05 s⁻¹ | 39000 M⁻¹ s⁻¹ | 0.01 µg/mL | 0.025 µg/mL | – |
| mAb 1I20 (antibody, V domains shown) VH: EVQLVESGGGVVQPGGSLRLSCIASAFNLGIFGMHWVRQAPGKGLEWVAFIRYDGGKTFYADSVKGRFTISRDNSKNTLYLQMNSLRTEDTALYYCARDATADYYGPGSYPNWLDPWGQGTLVTVS VL: DIRLTQSPATLSVSPGERATLSCRASHSVSRNLAWYQQKPGRAPRLLVYDTSSRATGIPARFSGSGSGTEFTLTISSLQSEDFAVYYCQQYNNWPRTFGQGTKVDIK | 0.048 nM | 1.4e-05 s⁻¹ | 290000 M⁻¹ s⁻¹ | 0.16 µg/mL | 0.28 µg/mL | – |
| mAb 4D20 (antibody, V domains shown) VH: EVQLVESGPVLVKPTETLTVTCTVSGFSVDNDRMGVSWIRQPPGKALEWLAHIFSNDEKSYSTSLRSRLTISKDTSKRQVVLSMTDMDPVDTATYYCARAPSEYAAMDVWGQGTMVTVS VL: SYVLTQPPSVSVAPGETATVTCGGNNIGSKSVHWYQQKPGQAPVVVIYYDGDRPSGIPERFSGSNSGDTATLTISRVEAGDEADYYCLVWDYTSVHYVFGTGTKVTVLG | 0.14 nM | 1e-05 s⁻¹ | 170000 M⁻¹ s⁻¹ | 0.04 µg/mL | 0.04 µg/mL | – |
